Assay results reported in PMC2810746 (Cell host & microbe, 2009).

Target: the molecule itself
Assay: immunoblotting of unboiled samples

B1: adenovirus penton base, recombinant, expressed in COS-7 cells (natural protein)
chain: MRRAAMYEEGPPPSYESVVSAAPVAAALGSPFDAPLDPPFVPPRYLRPTGGRNSIRYSELAPLFDTTRVYLVDNKSTDVASLNYQNDHSNFLTTVIQNNDYSPGEASTQTINLDDRSHWGGDLKTILHTNMPNVNEFMFTNKFKARVMVSRLPTKDNQVELKYEWVEFTLPEGNYSETMTIDLMNNAIVEHYLKVGRQNGVLESDIGVKFDTRNFRLGFDPVTGLVMPGVYTNEAFHPDIILLPGCGVDFTHSRLSNLLGIRKRQPFQEGFRITYDDLEGGNIPALLDVDAYQASLKDDTEQGGGGAGGSNSSGSGAEENSNAAAAAMQPVEDMNDHAIRGDTFATRAEEKRAEAEAAAEAAAPAAQPEVEKPQKKPVIKPLTEDSKKRSYNLISNDSTFTQYRSWYLAYNYGDPQTGIRSWTLLCTPDVTCGSEQVYWSLPDMMQDPVTFRSTRQISNFPVVGAELLPVHSKSFYNDQAVYSQLIRQFTSLTHVFNRFPENQILARPPAPTITTVSENVPALTDHGTLPLRNSIGGVQRVTITDARRRTCPYVYKALGIVSPRVLSSRTF
With B1 the “stoichiometry N” value was 5.
